The record followed here is US12383631 (BRIGHT PEAK THERAPEUTICS, dated 2025).

B5: recombinant Human Fc gamma RI/CD64 Protein (R&D systems, 1257-FC-050) (receptor)
chain: QVDTTKAVITLQPPWVSVFQEETVTLHCEVLHLPGSSSTQWFLNGTATQTSTPSYRITSASVNDSGEYRCQRGLSGRSDPIQLEIHRGWLLLQVSSRVFTEGEPLALRCHAWKDKLVYNVLYYRNGKAFKFFHWNSNLTILKTNISHNGTYHCSGMGKHRYTSAGISVTVKELFPAPVLNASVTSPLLEGNLVTLSCETKLLLQRPGLQLYFSFYMGSKTLRGRNTSSEYQILTARREDSGLYWCEAATEDGNVLKRSPELELQVLGLQLPTP
notes: detected with an anti-His antibody; tag not described; also called FcγRI/CD64; human Fc gamma receptor I

For test [1], the target named is T1, recombinant biotinylated human FcRn (human, UniProt P55899 24-297; P61769 21-119, limits assumed, biotinylated).
T1 construct: also called human neonatal Fc receptor (FcRn)
Nature of the test: AlphaLISA competition at pH 6; competitor: human IgG on acceptor beads. The procedure: The interaction of the unmodified and of conjugated anti-PD1 antibodies with the human neonatal Fc receptor (FcRn) at pH 6 was measured using the AlphaLISA® Human FcRn Binding Kit (AL3095C) from Perkin Elmer (Schwerzenbach, Switzerland).
After 90 min at 23° C. in the dark, AlphaLISA® signal was measured on an EnSpire plate reader (Excitation at 680 nm, Emission at 615 nm) from Perkin Elmer (Schwerzenbach, Switzerland). Binding Affinity of Reference Antibodies and Immunocytokines with the Human Neonatal Fc Receptor as Measured by AlphaLISA

Test [2] has as its target T2, recombinant Human Fc gamma RIIIA/CD16a Protein (R&D systems, 4325-FC-050) (human, UniProt P08637 17-208).
T2 construct: detected with an anti-His antibody; tag and allotype not described; also called FcγRIIIa (CD16)
Nature of the test: ELISA; antibody coated, receptor titrated, anti-His-HRP. The procedure:
(§1) The interaction of the unmodified and of conjugated antibodies with human Fc gamma receptors I (FcγRI/CD64), with human Fc gamma receptors IIa (FcγRIIa/CD32a), with inhibitory human Fc gamma receptors IIb (FcγRIIb/CD32b), and with human Fc gamma receptors III FcγRIIIa/CD16 were measured by ELISA.
(§2) Briefly, Corning high-binding half-area plates (Fisher Scientific, Reinach, Switzerland) were coated overnight at 4° C. with 25 μl of unmodified and of conjugated anti-PD1 antibodies at 2.5 μg/ml in PBS. Plates were then washed four times with 100 μl of PBS-0.02% Tween20. Plates surfaces were blocked with 25 μl of PBS-0.02% Tween20-1% BSA at 37° C. during 1 h. Plates were then washed four times with 100 μl of PBS-0.02% Tween20. Then twenty-five microliters of either recombinant Human Fc gamma RI/CD64 Protein (R&D systems, 1257-FC-050, CF), recombinant Human Fc gamma RIIA/CD32a (H167) Protein (R&D systems, 9595-CD-050, CF), recombinant Human Fc gamma RIIB/CD32b Avi-tag Protein (R&D systems, AVI1875-050, CF), or recombinant Human Fc gamma RIIIA/CD16a Protein (R&D systems, 4325-FC-050; CF) were added in five-fold serial dilutions ranging from 1000 nM to 0.001 nM into PBS-0.02% Tween20-0.1% BSA and incubated at 37° C. during 2 h. Plates were then washed four times with 100 μl of PBS-0.02% Tween20. Twenty-five microliters of a 1/500 HRP-anti-His antibody in PBS—0.02% Tween20-0.1% BSA (R&D systems, anti-HIS—HRP Ab, #MAB050H) were added to each well and plates were incubated at Room Temperature during 1 h. Plates were then washed four times with 100 μl of PBS-0.02% Tween20. Fifty microliters of TMB substrate reagent (#CL07, Merck, Buchs, Switzerland) were added to each well and incubated at 37° C. during 5 min. After 5 min at 37° C., Horseradish peroxidase reaction was stopped by adding 50 μl/well of 0.5M H2SO4 stop solution. ELISA signal was then measured at 450 nm on an EnSpire plate reader from Perkin Elmer (Schwerzenbach, Switzerland). Binding Affinity of Reference Antibodies and Immunocytokines with Human Fc Gamma Receptors as Measured by ELISA

Test [3] deals with B5. Described as above. The procedure:
as §1, §2

Test [4] concerns the target T3, IL-18 receptor (IL-18Rα/IL-18Rβ) on cells (HEK-Blue IL18R reporter cells, NK-92, KG-1) (human, UniProt Q13478 19-541; O95256 20-599).
T3 sequence (looked up) 1: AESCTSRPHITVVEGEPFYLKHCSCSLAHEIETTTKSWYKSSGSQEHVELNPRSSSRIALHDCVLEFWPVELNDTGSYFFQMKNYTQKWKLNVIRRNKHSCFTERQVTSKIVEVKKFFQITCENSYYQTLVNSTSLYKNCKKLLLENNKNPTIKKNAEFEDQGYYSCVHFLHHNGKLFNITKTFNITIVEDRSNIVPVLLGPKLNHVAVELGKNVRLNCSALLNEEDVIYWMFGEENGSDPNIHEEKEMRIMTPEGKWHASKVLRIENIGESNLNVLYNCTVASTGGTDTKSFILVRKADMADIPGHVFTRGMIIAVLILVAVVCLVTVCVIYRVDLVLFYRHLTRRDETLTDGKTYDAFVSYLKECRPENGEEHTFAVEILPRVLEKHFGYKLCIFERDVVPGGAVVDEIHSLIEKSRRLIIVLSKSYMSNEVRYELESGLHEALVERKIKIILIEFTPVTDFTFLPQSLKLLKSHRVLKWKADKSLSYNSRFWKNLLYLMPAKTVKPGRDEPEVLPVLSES
T3 sequence (looked up) 2: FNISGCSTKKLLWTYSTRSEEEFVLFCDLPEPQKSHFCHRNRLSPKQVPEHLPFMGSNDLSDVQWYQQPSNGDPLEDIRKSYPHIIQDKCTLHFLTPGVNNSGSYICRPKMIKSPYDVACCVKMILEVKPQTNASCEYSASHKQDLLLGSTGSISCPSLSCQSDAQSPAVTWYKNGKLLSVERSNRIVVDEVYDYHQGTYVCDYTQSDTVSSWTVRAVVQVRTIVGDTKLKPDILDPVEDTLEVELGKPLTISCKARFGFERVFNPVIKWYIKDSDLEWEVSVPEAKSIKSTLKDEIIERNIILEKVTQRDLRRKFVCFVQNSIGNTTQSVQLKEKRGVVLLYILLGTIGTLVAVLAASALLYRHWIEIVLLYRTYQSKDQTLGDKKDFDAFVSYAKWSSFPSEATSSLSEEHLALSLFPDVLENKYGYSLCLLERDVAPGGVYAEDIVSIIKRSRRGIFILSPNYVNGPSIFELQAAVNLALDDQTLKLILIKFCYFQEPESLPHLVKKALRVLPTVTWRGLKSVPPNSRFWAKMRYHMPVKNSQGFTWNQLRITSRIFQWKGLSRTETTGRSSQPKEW
Description: cell-based or functional assay.

In test [5] the target is T3, IL-18 receptor (IL-18Rα/IL-18Rβ) on …. Nature of the test: cell-based or functional assay. This is another data set of the same source.
For test [6] the target is unchanged. Nature of the test: cell-based or functional assay. This is another data set of the same source.
The next test deals with T4, human IL-18BP-His (human, UniProt O95998 31-194, limits assumed).
T4 construct: also called His-tagged human IL-18BP; not shown: His tag
T4 sequence (looked up): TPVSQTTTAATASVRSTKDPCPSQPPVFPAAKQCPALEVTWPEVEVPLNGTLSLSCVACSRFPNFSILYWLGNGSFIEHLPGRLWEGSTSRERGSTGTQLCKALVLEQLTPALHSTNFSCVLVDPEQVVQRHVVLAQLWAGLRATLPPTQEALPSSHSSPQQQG
Nature of the test: AlphaLISA of free IL-18BP. The method, then: The plate is incubated further for 1 hr at room temperature. Under subdued light, 12.5 µL of 2× streptavidin (SA) donor beads are pipetted into each well, and the wells are incubated with shaking for an additional 30 min at room temperature. The AlphaLisa signal is then measured on an Enspire plate reader with 680 and 615 nm as excitation and emission wavelengths, respectively. The dissociation constant (K_D) is calculated based on a variable slope, four parameter analysis using GraphPad PRISM software.

For test [7], the target named is T5, Composition B (Atezolizumab/Tecentriq conjugated to IL-18 polypeptide of SEQ ID NO: 30) (human, UniProt P0DOX5 2-449 = IgG part; P0DOX7 1-214; Q14116 37-193, chemical linker to the antibody; site not stated for this composition; chemical linker to IL-18; site not stated for this composition).
T5 construct: immunocytokine
Nature of the test: ELISA; immunocytokine coated, receptor titrated, anti-His-HRP. The method, then:
as §1
Briefly, Corning high-binding half-area plates (Fisher Scientific, Reinach, Switzerland) were coated overnight at 4° C. with 25 μl of unmodified and of conjugated anti-PD1 antibodies at 2.5 μg/ml in PBS. Plates were then washed four times with 100 μl of PBS-0.02% Tween20. Plates surfaces were blocked with 25 μl of PBS-0.02% Tween20-1% BSA at 37° C. during 1 h. Plates were then washed four times with 100 μl of PBS-0.02% Tween20. […] ELISA signal was then measured at 450 nm on an EnSpire plate reader from Perkin Elmer (Schwerzenbach, Switzerland). Binding Affinity of Reference Antibodies and Immunocytokines with Human Fc Gamma Receptors as Measured by ELISA

B1: Pembrolizumab/Keytruda (antibody, human IgG4 S228P, kappa)
heavy: not shown
light: EIVLTQSPATLSLSPGERATLSCRASKGVSTSGYSYLHWYQQKPGQAPRLLIYLASYLESGVPARFSGSGSGTDFTLTISSLEPEDFAVYYCQHSRDLPLTFGGGTKVEIKRTVAAPSVFIFPPSDEQLKSGTASVVCLLNNFYPREAKVQWKVDNALQSGNSQESVTEQDSKDSTYSLSSTLTLSKADYEKHKVYACEVTHQGLSSPVTKSFNRGEC
notes: also called Lambrolizumab; MK-3475
On to B1, for which the Kd stood at 7.45 nM in test [1], 1660 nM in test [2] and 0.593 nM in test [3].

B2: IL-18 polypeptide of SEQ ID NO: 60 (E6K, C38Q, K53A) (ligand)
chain: YFGKLKSKLSVIRNLNDQVLFIDQGNRPLFEDMTDSDQRDNAPRTIFIISMYADSQPRGMAVTISVKCEKISTLSCENKIISFKEMNPPDNIKDTKSDIIFFQRSVPGHDNKMQFESSSYEGYFLACEKERDLFKLILKKEDELGDRSIMFTVQNED
With B2, the “EC50, HEK-Blue IL18R reporter cells” value in test [4] stood at 0.203 pM. Further, the “EC50, IFNγ secretion, NK92 cells” value in test [5] turned out to be 0.008 nM. Moreover, the “EC50, IFNγ stimulation, NK92 cells” value in test [6] was found to be 0.006 nM. For the same molecule, in the test with human IL-18BP-His, the Kd amounted to 24.8 nM.

B3: Composition E (LZM-009 conjugated to IL-18 polypeptide of SEQ ID NO: 60) (other)
VH: QVQLVQSGAEVKKPGASVKVSCKASGYTFTSYYMYWVRQAPGQGLEWMGGVNPSNGGTNFNEKFKSRVTITADKSTSTAYMELSSLRSEDTAVYYCARRDYRYDMGFDYWGQGTTVTVSS
VL: EIVLTQSPATLSLSPGERATISCRASKGVSTSGYSYLHWYQQKPGQAPRLLIYLASYLESGVPARFSGSGSGTDFTLTISSLEPEDFATYYCQHSRELPLTFGTGTKVEIK
chain: YFGKLKSKLSVIRNLNDQVLFIDQGNRPLFEDMTDSDQRDNAPRTIFIISMYADSQPRGMAVTISVKCEKISTLSCENKIISFKEMNPPDNIKDTKSDIIFFQRSVPGHDNKMQFESSSYEGYFLACEKERDLFKLILKKEDELGDRSIMFTVQNED
modifications: chemical linker to the antibody; chemical linker to IL-18
For the molecule B3, in test [5], the “EC50, IFNγ secretion, NK92 cells” value stood at 0.056 nM.

B4: IL-18 polypeptide of SEQ ID NO: 62 (E6K, C38A, K53A, C127A) (ligand)
chain: YFGKLKSKLSVIRNLNDQVLFIDQGNRPLFEDMTDSDARDNAPRTIFIISMYADSQPRGMAVTISVKCEKISTLSCENKIISFKEMNPPDNIKDTKSDIIFFQRSVPGHDNKMQFESSSYEGYFLAAEKERDLFKLILKKEDELGDRSIMFTVQNED
As for B4, the “EC50, HEK-Blue IL18R reporter cells” value in test [4] is 0.17 pM. Further, in test [6], the “EC50, IFNγ stimulation, NK92 cells” value worked out at 0.026 nM. Moreover, the affinity with human IL-18BP-His, expressed as Kd, was 69.6 nM.
B5 registered a Kd in test [7] of 10.8 nM.

B6: recombinant Human Fc gamma RIIA/CD32a (H167) Protein (R&D systems, 9595-CD-050) (receptor)
chain: AAPPKAVLKLEPPWINVLQEDSVTLTCQGARSPESDSIQWFHNGNLIPTHTQPSYRFKANNNDSGEYTCQTGQTSLSDPVHLTVLSEWLVLQTPHLEFQEGETIMLRCHSWKDKPLVKVTFFQNGKSQKFSHLDPTFSIPQANHSHSGDYHCTGNIGYTLFSSKPVTITVQVPSMGSSSPMGI
notes: detected with an anti-His antibody; tag not described; also called FcγRIIa (CD32a)
Regarding B6, in test [7], binding was put at a Kd of 1740 nM.

B7: Avelumab/Bavencio (antibody, human IgG1, lambda)
heavy: not shown
light: QSALTQPASVSGSPGQSITISCTGTSSDVGGYNYVSWYQQHPGKAPKLMIYDVSNRPSGVSNRFSGSKSGNTASLTISGLQAEDEADYYCSSYTSSSTRVFGTGTKVTVLGQPKANPTVTLFPPSSEELQANKATLVCLISDFYPGAVTVAWKADGSPVKAGVETTKPSKQSNNKYAASSYLSLTPEQWKSHRSYSCQVTHEGSTVEKTVAPTECS
notes: also called MSB-0010718C
With B7, in test [1], the Kd worked out at 5.36 nM.
